Source: article PMC7891125 (Cell, 2021)

B1: Fab 253H165L (Fab, V domains shown)
VH: not shown
VL: DIVMTQSPGTLSLSPGERATLSCRASQSVRSSYLAWYQQKPGQAPRLLIYGASRRGTGIPDRFSGSGSGTDFTLTISRLEPEDFAVYYCQQYGSSPWTFGQGTKVEIK
notes: also called chimera 253H165L
B2: Strep-tagged Fab150 (Fab, V domains shown)
VH: QVQLVESGGGLIQPGGSLRLSCAASGVTVSSNYMSWVRQAPGKGLEWVSIIYSGGTTYYADSVKGRFTISRDSSMNTLYLQMNSLRAEDTAVYYCARDLMVYGIDVWGQGTTVTVSS
VL: EIVMTQSPSSLSASVGDRVTITCRASQGISSYLAWYQQKPGKAPKLLIYAASTLQSGVPSRFSGSGSGTDFTLTISSLQPEDFATYYCQQLDSYPPGYTFGQGTKVDIK
notes: source: HEK293T, transient transfection, purified (Strep-Tactin)
B3: Strep-tagged Fab316 (Fab, V domains shown)
VH: not shown
VL: QAVLTQPPSASGSPGQSVTISCTGTSSDVGGYNYVSWYQQHPGKAPKLMIYEVSKRPSGVPDRFSGSKSGNTASLTVSGLQAEDEADYYCSSYAGSNHWVFGGGTKLTVL
B4: Strep-tagged Fab 158 (Fab, V domains shown)
VH: EVQLLESGGDLIQPGGSLRLSCAASGVTVSSNYMSWVRQAPGKGLEWVSIIYPGGSTFYADSVKGRFTISRDNSKNTLYLQMHSLRAEDTAVYYCARDLGSGDMDVWGKGTTVTVSS
VL: DIVMTQSPSFLSASVGDRVTITCRASQGISSYLAWYQQKPGKAPKLLIQAASTLQSGVPSRFSGSGSGTEFTLTISSLQPEDFATYYCQQLNSYRYTFGQGTKVEIK
notes: also called Fab58 (as printed in the crystallization paragraph); source: HEK293T, transient transfection, purified (Strep-Tactin)
B5: Strep-tagged Fab88 (Fab, V domains shown)
VH: QLQLQESGPGLVKPSQTLSLTCTVSGGSISSGSYNWTWIRQPAGKGLEWIGRIYNSGSTNYNPSLKSRVTISVDTSKNQLSLKVRSVTAADTAVYYCARHCSGGTCYPKYYYGMDVWGQGTTVTVSS
VL: QSALTQPPSVSEAPRQRVTISCSGSSSNIGNNAVNWYQQFPGKAPKLLIYYDDLLPSGVSDRFSGSKSGTSASLAISGVQSEDEADYYCAAWDDSLNVVVFGGGTKLTVL
notes: as for B2

Target: T1, SARS-Cov2 Spike ectodomain for structural analysis (SARS-CoV-2 Wuhan-Hu-1 (MN908947), UniProt P0DTC2, RRAR > GSAS at residues 682-685 | KV > PP at residues 986-987)
T1 construct: also called trimeric spike
Assay: cryo-EM structure; spike (S ~0.6 μm) with Fab or IgG (1:6 molar ratio), applied to the grid almost immediately
Conditions: both partners purified

Binder | binding result | stoichiometry N
B1 | binds | 
B2 | binds | 
B3 |  | 3 Fabs/trimer
B4 | binds | 
B5 |  | 3 Fabs/trimer
